Data on two variants can be found in IntAct's records for PubMed 28934384.

The chains are these.
B1: Protein kinase C epsilon type (Homo sapiens), Q02156 (parent)
chain: MVVFNGLLKIKICEAVSLKPTAWSLRHAVGPRPQTFLLDPYIALNVDDSRIGQTATKQKTNSPAWHDEFVTDVCNGRKIELAVFHDAPIGYDDFVANCTIQFEELLQNGSRHFEDWIDLEPEGRVYVIIDLSGSSGEAPKDNEERVFRERMRPRKRQGAVRRRVHQVNGHKFMATYLRQPTYCSHCRDFIWGVIGKQGYQCQVCTCVVHKRCHELIITKCAGLKKQETPDQVGSQRFSVNMPHKFGIHNYKVPTFCDHCGSLLWGLLRQGLQCKVCKMNVHRRCETNVAPNCGVDARGIAKVLADLGVTPDKITNSGQRRKKLIAGAESPQPASGSSPSEEDRSKSAPTSPCDQEIKELENNIRKALSFDNRGEEHRAASSPDGQLMSPGENGEVRQGQAKRLGLDEFNFIKVLGKGSFGKVMLAELKGKDEVYAVKVLKKDVILQDDDVDCTMTEKRILALARKHPYLTQLYCCFQTKDRLFFVMEYVNGGDLMFQIQRSRKFDEPRSRFYAAEVTSALMFLHQHGVIYRDLKLDNILLDAEGHCKLADFGMCKEGILNGVTTTTFCGTPDYIAPEILQELEYGPSVDWWALGVLMYEMMAGQPPFEADNEDDLFESILHDDVLYPVWLSKEAVSILKAFMTKNPHKRLGCVASQNGEDAIKQHPFFKEIDWVLLEQKKIKPPFKPRIKTKRDVNNFDQDFTREEPVLTLVDEAIVKQINQEEFKGFSYFGEDLMP
B2: Protein kinase C epsilon type (Homo sapiens), Q02156 (parent)
chain: B1 chain
partner: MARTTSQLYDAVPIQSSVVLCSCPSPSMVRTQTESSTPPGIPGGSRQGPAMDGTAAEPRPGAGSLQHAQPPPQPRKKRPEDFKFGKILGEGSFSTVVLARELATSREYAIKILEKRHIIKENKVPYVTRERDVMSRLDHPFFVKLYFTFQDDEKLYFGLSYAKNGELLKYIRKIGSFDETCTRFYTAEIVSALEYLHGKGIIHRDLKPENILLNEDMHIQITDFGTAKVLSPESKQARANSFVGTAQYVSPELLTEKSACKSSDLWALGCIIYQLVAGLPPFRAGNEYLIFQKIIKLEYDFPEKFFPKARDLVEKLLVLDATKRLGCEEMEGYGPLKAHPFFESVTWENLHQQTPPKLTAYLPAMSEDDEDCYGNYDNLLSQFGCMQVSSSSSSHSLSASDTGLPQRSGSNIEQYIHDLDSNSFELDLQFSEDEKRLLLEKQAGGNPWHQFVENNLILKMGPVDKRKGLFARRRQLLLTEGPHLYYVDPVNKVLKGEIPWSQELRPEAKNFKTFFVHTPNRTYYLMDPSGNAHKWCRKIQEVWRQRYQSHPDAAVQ

In the first assay the parent is B1. The conditions noted are these: with sin1_human MAPKAP1, Q9BPZ7.
sin1_human MAPKAP1, Q9BPZ7, sequence (Q9BPZ7 whole entry): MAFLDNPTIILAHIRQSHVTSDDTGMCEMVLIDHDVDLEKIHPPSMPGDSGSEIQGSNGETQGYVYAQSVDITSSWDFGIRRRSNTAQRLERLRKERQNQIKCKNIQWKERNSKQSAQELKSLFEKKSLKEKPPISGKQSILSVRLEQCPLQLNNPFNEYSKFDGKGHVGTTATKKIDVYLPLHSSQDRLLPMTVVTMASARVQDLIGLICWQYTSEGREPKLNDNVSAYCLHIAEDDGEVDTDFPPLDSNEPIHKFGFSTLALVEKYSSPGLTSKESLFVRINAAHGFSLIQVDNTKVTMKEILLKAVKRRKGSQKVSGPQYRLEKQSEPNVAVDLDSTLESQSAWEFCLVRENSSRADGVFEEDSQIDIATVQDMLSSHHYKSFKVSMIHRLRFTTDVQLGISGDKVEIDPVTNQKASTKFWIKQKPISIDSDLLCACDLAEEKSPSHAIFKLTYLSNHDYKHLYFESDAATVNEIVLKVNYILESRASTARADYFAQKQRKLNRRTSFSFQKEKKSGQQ
Take E599K: the “effect of a mutation on the interaction” value is recorded as “increasing interaction strength”.

A further assay covers variants of B2. The conditions noted are these: with pdpk1_human PDPK1, O15530.
Take E599K: the “effect of a mutation on the interaction” value is on record as “with no effect”.
